Data set [1] has as its target Flag tagged-human Lmbr1l (limb region 1 like, LMBR1L) (human) (UniProt Q6UX01). As to the kind of experiment: anti-FLAG co-IP from HEK293T lysate + LC-MS/MS, vs empty vector.
In data set [2] the target is T1, Flag tagged-human Lmbr1l (limb region 1 like, LMBR1L) (human, UniProt Q6UX01 1-489).
T1 construct: It carries a Flag tag; also called h-LMBR1L; LIMR
T1 sequence: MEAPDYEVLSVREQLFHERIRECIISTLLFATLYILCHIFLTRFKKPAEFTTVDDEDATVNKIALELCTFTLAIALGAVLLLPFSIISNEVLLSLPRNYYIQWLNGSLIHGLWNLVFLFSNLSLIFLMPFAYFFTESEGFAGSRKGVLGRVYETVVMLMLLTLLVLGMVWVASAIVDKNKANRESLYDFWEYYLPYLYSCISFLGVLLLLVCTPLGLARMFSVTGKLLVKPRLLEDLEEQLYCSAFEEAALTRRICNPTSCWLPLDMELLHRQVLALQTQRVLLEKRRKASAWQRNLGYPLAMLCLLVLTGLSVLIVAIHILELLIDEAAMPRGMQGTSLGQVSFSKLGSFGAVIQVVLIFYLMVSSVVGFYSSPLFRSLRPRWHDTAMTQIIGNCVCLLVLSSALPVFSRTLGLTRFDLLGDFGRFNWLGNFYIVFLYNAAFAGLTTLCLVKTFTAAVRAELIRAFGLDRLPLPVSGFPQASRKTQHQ
Described as above. The procedure:
We sought to understand the immune function of LMBRL1 by identifying LMBR1L-interacting proteins using co-immunoprecipitation (co-IP) combined with mass spectrometry (MS) analysis. Among the 1,623 candidate proteins identified as putative LMBR1L interactors (Dataset S1), 25 proteins were >50-fold more abundant in the LMBR1L co-IP product relative to empty vector control (Table 1).
Co-immunoprecipitation and mass spectrometry were performed to identify Lmbr1l-interacting proteins as described below. Transfection was performed in HEK293T cells (ATCC) using Lipofectamine 2000 reagent (Life technologies) with plasmid encoding Flag tagged-human Lmbr1l or empty vector control. Forty-eight hours after transfection, cells were harvested in NP-40 lysis buffer for 45 min at 4° C. […] The proteins were eluted with SDS sample buffer and heated at 95° C. for 10 min. Lysates were loaded onto 12% (wt/vol) SDS-PAGE gel and run 1 cm into the separation gel. The gel was stained with Coomassie blue (Thermo Fisher) and whole stained lanes were subjected to mass spectrometry analysis (LCMS/MS) as described previously (33).

The next data set has as its target T2, FLAG-tagged β-catenin.
T2 chain: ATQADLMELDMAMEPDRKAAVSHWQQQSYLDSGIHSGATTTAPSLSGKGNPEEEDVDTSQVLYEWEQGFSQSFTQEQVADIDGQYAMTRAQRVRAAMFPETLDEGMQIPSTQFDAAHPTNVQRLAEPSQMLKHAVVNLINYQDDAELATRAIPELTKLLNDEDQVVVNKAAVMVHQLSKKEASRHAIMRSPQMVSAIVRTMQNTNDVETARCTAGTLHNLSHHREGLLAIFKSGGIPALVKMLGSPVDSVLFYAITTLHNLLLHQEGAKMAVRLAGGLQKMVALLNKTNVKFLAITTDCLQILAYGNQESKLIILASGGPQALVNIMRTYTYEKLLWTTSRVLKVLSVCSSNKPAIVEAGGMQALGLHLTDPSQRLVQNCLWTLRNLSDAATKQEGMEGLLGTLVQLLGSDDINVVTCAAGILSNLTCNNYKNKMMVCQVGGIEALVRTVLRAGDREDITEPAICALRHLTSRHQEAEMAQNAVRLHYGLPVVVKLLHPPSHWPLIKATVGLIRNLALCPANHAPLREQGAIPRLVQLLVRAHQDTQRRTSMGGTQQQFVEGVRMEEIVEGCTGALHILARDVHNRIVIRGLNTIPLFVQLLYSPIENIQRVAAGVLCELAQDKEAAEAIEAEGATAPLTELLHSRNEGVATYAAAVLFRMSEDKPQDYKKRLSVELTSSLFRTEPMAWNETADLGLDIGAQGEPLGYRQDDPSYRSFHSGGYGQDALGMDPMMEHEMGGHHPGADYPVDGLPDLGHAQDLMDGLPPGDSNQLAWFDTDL

For NCAPD2 (from UniProt Q15021 1-1401), the Ratio h-LMBR1L/h-vector in data set [1] worked out at 169.

As for “STT3A (from UniProt P46977 1-705) (enzyme)”, in data set [1], the Ratio h-LMBR1L/h-vector worked out at 65.6.

As to PTPLAD1, the Ratio h-LMBR1L/h-vector in data set [1] was 87.6.

On to NDUFA2 (from UniProt O43678 2-99), for which the Ratio h-LMBR1L/h-vector in data set [1] came to 107.

CKAP4 (from UniProt Q07065 1-602): the Ratio h-LMBR1L/h-vector in data set [1] stood at 79.5.

As to “IARS (from UniProt J3KR24 1-1121) (enzyme)”, the Ratio h-LMBR1L/h-vector in data set [1] stood at 106.

As for SRP68 (from UniProt Q9UHB9 1-627), the Ratio h-LMBR1L/h-vector in data set [1] was 198.

For “USP9X (from UniProt Q93008 1-2554) (enzyme)”, the Ratio h-LMBR1L/h-vector in data set [1] is 51.6.

For the molecule COPA (from UniProt P53621 1-1224), in data set [1], the Ratio h-LMBR1L/h-vector was 110.

Consider IMMT, for which the Ratio h-LMBR1L/h-vector in data set [1] was 100.

For MAGED1 (from UniProt Q9Y5V3 1-778), the Ratio h-LMBR1L/h-vector in data set [1] was determined as 58.1.

Take PDCD6IP (from UniProt Q8WUM4 2-868): the Ratio h-LMBR1L/h-vector in data set [1] came out at 67.3.

Take SRPRB (from UniProt Q9Y5M8 1-271): the Ratio h-LMBR1L/h-vector in data set [1] is 231.

Turning to EIF4G1 (from UniProt E7EUU4 1-1560), in data set [1], the Ratio h-LMBR1L/h-vector stood at 58.1.

For the molecule FKBP8 (from UniProt Q14318 1-413), the Ratio h-LMBR1L/h-vector in data set [1] amounted to 87.6.

GAPVD1 (from UniProt Q14C86 1-1478): in data set [1], the Ratio h-LMBR1L/h-vector came to 110.

On to “GANAB (from UniProt Q14697 29-944) (enzyme)”, for which the Ratio h-LMBR1L/h-vector in data set [1] came out at 198.

Turning to AAAS (from UniProt F8VZ44 1-422), the Ratio h-LMBR1L/h-vector in data set [1] amounted to 81.9.

Take TMEM209 (from UniProt Q96SK2 1-561): the Ratio h-LMBR1L/h-vector in data set [1] was 97.8.

In the case of TMEM33 (from UniProt P57088 2-247), the Ratio h-LMBR1L/h-vector in data set [1] turned out to be 87.

Take RPN1 (from UniProt P04843 24-607): the Ratio h-LMBR1L/h-vector in data set [1] was determined as 118.

B1: ubiquitin associated domain containing 2 (UBAC2) (other, UniProt Q8NBM4 36-344, looked up)
chain: HCQKLFVYDLHAVKNDFQIWRLICGRIICLDLKDTFCSSLLIYNFRIFERRYGSRKFASFLLGSWVLSALFDFLLIEAMQYFFGITAASNLPSGFLAPVFALFVPFYCSIPRVQVAQILGPLSITNKTLIYILGLQLFTSGSYIWIVAISGLMSGLCYDSKMFQVHQVLCIPSWMAKFFSWTLEPIFSSSEPTSEARIGMGATLDIQRQQRMELLDRQLMFSQFAQGRRQRQQQGGMINWNRLFPPLRQRQNVNYQGGRQSEPAAPPLEVSEEQVARLMEMGFSRGDALEALRASNNDLNVATNFLLQH
notes: Identified by LC-MS/MS in the LMBR1L co-IP
Consider B1, for which, in data set [2], the “Ratio h-LMBR1L/h-vector” value was found to be 297 ratio.

B2: glycoprotein 78 (GP78; known as AMFR) (enzyme, UniProt Q9UKV5 1-643, looked up)
chain: MPLLFLERFPWPSLRTYTGLSGLALLGTIISAYRALSQPEAGPGEPDQLTASLQPEPPAPARPSAGGPRARDVAQYLLSDSLFVWVLVNTACCVLMLVAKLIQCIVFGPLRVSERQHLKDKFWNFIFYKFIFIFGVLNVQTVEEVVMWCLWFAGLVFLHLMVQLCKDRFEYLSFSPTTPMSSHGRVLSLLVAMLLSCCGLAAVCSITGYTHGMHTLAFMAAESLLVTVRTAHVILRYVIHLWDLNHEGTWEGKGTYVYYTDFVMELTLLSLDLMHHIHMLLFGNIWLSMASLVIFMQLRYLFHEVQRRIRRHKNYLRVVGNMEARFAVATPEELAVNNDDCAICWDSMQAARKLPCGHLFHNSCLRSWLEQDTSCPTCRMSLNIADNNRVREEHQGENLDENLVPVAAAEGRPRLNQHNHFFHFDGSRIASWLPSFSVEVMHTTNILGITQASNSQLNAMAHQIQEMFPQVPYHLVLQDLQLTRSVEITTDNILEGRIQVPFPTQRSDSIRPALNSPVERPSSDQEEGETSAQTERVPLDLSPRLEETLDFGEVEVEPSEVEDFEARGSRFSKSADERQRMLVQRKDELLQQARKRFLNKSSEDDAASESFLPSEGASSDPVTLRRRMLAAAAERRLQKQQTS
notes: Identified by LC-MS/MS in the LMBR1L co-IP; also called AMFR (GP78)
Consider B2, for which the “ubiquitination of β-catenin (anti-FLAG IP, anti-ubiquitin immunoblot)” value in the data set with FLAG-tagged β-catenin is “Co-expression of FLAG-tagged β-catenin and HA-tagged GP78 strongly promoted the ubiquitination of β-catenin”. Also, in data set [2], the “Ratio h-LMBR1L/h-vector” value amounted to 51.7 ratio.

B3: UBX domain-containing protein 8 (UBXD8, known as FAF2) (other, UniProt Q96CS3 2-445, looked up)
chain: AAPEERDLTQEQTEKLLQFQDLTGIESMDQCRHTLEQHNWNIEAAVQDRLNEQEGVPSVFNPPPSRPLQVNTADHRIYSYVVSRPQPRGLLGWGYYLIMLPFRFTYYTILDIFRFALRFIRPDPRSRVTDPVGDIVSFMHSFEEKYGRAHPVFYQGTYSQALNDAKRELRFLLVYLHGDDHQDSDEFCRNTLCAPEVISLINTRMLFWACSTNKPEGYRVSQALRENTYPFLAMIMLKDRRMTVVGRLEGLIQPDDLINQLTFIMDANQTYLVSERLEREERNQTQVLRQQQDEAYLASLRADQEKERKKREERERKRRKEEEVQQQKLAEERRRQNLQEEKERKLECLPPEPSPDDPESVKIIFKLPNDSRVERRFHFSQSLTVIHDFLFSLKESPEKFQIEANFPRRVLPCIPSEEWPNPPTLQEAGLSHTEVLFVQDLTDE
notes: Identified by LC-MS/MS in the LMBR1L co-IP; also called FAF2 (UBXDB8)
B3: the “Ratio h-LMBR1L/h-vector” value in data set [2] came out at 71.2 ratio.
